Substitutions are numbered along the chain they refer to. Several values for one entry are separate records, joined by “and”; a condition that tells them apart may be missing. Equal values may be shown once.

The target in data set [1] is PEG Variants of SEQ ID NO 24 (PEGylated Cysteine variants of fibrin domain fusion form of SK).
For data set [2], the target named is T1, PEGylated SK C-383 Cys (SEQ ID NO 492), Cys at C + 1 position of SK 1-383, G3.
T1 chain: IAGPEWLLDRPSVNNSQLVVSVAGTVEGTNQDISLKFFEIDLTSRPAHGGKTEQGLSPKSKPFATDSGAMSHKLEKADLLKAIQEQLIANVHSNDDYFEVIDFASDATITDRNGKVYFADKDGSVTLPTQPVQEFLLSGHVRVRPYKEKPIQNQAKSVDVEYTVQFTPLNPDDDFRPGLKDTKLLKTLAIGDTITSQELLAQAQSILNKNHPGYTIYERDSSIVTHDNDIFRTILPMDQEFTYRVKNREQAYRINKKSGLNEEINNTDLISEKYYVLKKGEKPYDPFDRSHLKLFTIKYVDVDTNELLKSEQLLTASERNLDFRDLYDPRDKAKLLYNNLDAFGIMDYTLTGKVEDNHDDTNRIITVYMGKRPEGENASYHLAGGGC

Data set [3] has as its target T2, PEGylated SK Lys 257 Cys (SEQ ID NO 48).
T2 chain: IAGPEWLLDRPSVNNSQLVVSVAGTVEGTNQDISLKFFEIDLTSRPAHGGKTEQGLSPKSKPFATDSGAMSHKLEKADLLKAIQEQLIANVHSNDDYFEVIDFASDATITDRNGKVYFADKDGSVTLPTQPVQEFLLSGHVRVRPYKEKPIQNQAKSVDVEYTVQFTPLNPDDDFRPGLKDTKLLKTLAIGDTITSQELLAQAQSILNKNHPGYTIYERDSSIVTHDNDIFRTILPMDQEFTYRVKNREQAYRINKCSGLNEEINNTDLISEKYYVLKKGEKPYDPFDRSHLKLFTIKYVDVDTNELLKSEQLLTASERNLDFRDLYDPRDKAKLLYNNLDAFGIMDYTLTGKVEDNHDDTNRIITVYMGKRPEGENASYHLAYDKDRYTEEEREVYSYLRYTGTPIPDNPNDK

Data set [4] addresses T3, PEGylated SK D95C (SEQ ID NO 30).
T3 chain: T2 chain with D95C, C257K

For data set [5], the target named is T4, bi-pegylated NC 1-414 (SEQ ID NO 491), Cys at N - 1 and at C + 1 position in SK.
T4 chain: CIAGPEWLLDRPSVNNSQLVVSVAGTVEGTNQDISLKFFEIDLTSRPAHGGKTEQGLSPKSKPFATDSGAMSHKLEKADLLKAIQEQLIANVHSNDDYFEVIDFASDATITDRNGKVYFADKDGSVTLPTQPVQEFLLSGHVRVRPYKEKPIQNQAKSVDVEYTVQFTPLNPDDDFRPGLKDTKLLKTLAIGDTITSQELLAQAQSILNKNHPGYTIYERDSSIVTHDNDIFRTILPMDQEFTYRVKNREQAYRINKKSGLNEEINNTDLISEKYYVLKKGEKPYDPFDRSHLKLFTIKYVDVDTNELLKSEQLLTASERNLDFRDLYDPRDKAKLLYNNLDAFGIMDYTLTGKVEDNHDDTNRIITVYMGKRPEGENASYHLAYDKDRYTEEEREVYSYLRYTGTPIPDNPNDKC

Data set [6] addresses T5, native streptokinase nSK (1-414) ATCC 12449 (SEQ ID NO 1).
T5 chain: T2 chain with C257K

B1: human plasminogen (HPG) (protein)
chain: KVYLSECKTGNGKNYRGTMSKTKNGITCQKWSSTSPHRPRFSPATHPSEGLEENYCRNPDNDPQGPWCYTTDPEKRYDYCDILECEEECMHCSGENYDGKISKTMSGLECQAWDSQSPHAHGYIPSKFPNKNLKKNYCRNPDRELRPWCFTTDPNKRWELCDIPRCTTPPPSSGPTYQCLKGTGENYRGNVAVTVSGHTCQHWSAQTPHTHNRTPENFPCKNLDENYCRNPDGKRAPWCHTTNSQVRWEYCKIPSCDSSPVSTEQLAPTAPPELTPVVQDCYHGDGQSYRGTSSTTTTGKKCQSWSSMTPHRHQKTPENYPNAGLTMNYCRNPDADKGPWCFTTDPSVRWEYCNLKKCSGTEASVVAPPPVVLLPDVETPSEEDCMFGNGKGYRGKRATTVTGTPCQDWAAQEPHRHSIFTPETNPRAGLEKNYCRNPDGDVGGPWCYTTNPRKLYDYCDVPQCAAPSFDCGKPQVEPKKCPGRVVGGCVAHPHSWPWQVSLRTRFGMHFCGGTLISPEWVLTAAHCLEKSPRPSSYKVILGAHQEVNLEPHVQEIEVSRLFLEPTRKDIALLKLSSPAVITDKVIPACLPSPNYVVADRTECFITGWGETQGTFGAGLLKEAQLPVIENKVCNRYEFLNGRVQSTELCAGHLAGGTDSCQGDSGGPLVCFEKDKYILQGVTSWGLGCARPNKPGVYVRVSRFVTWIEGVMRNN
Broadly, the Km is the concentration of substrate that gives half-maximal velocity. For B1, the Km in data set [1] was 0.48 µM; in data set [2] it was 0.4 µM; in data set [3] it was 0.4 µM; in data set [4], 0.5 µM; in data set [5], 0.42 µM; in data set [6], 0.4 µM and 0.45 µM.

The values are drawn from US20120213763A1 (COUNCIL OF SCIENTIFIC AND INDUSTRIAL RESEARCH, published 2012).
